Data published in the supplement of paper PMC10567573.
± gives the standard deviation.

Experiment: protein stability index of a GFP-peptide fusion (GPS, HEK-293T) (PSI 1-6); higher = more stable
[1] = treatment: DMSO, c terminus: a fixed tail appended
[2] = treatment: MLN4924 1 uM, 8 h, c terminus: a fixed tail appended
[3] = treatment: DMSO, c terminus: native
[4] = treatment: MLN4924 1 uM, 8 h, c terminus: native
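Further: 24-mer peptide tiles fused after GFP, lentivirally expressed, FACS-sorted into six equal bins by GFP/DsRed ratio, decoded by Illumina sequencing, PSI is the read-weighted mean bin number.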

Sequence	protein stability index [1]	protein stability index [2]	protein stability index [3]	protein stability index [4]
GRDDLESFQLEISGFLKEMACPYS [FAM98B]	2.29 ± 0.3	2.67 ± 0.75		
MEEMQNKAVVFFVFYLWSAIEIFR [HACD3]	2.7	2.8 ± 0.63		
GVLTRKTHADMDGKRTPRGRRGWK [PSD2]	4.47 ± 0.29	4.53 ± 0.29		
LVDFCNKPILLHQVEALAAAGVDH [GMPPB]	2.65 ± 0.31	2.95 ± 0.35		
FDIQQGFDNPQVRFFLGDLCSRQD [NSDHL]	2.94 ± 0.24	2.86 ± 0.31		
YGRSDVVVLCFSIANPNSLNHVKS [RHOBTB1]	3.21 ± 0.43	2.64 ± 0.69		
LLATAEQEQLSLSQRQAKELKLEQ [LRRC45]	4.88 ± 0.21	5.02 ± 0.15		
GATWRTSGLLEELNAEAGHLDPGF [C18orf25]	3.98 ± 0.43	3.75 ± 0.52		
DARIGEAEAKRDAGIREAKAKQEK [FLOT1]	5.5 ± 0.19	5.37 ± 0.19		
KCLSMFPHYICTLKQPHLLLEKYS [PNLIPRP1]	2.67 ± 0.69	2.51 ± 0.59		
ELLDEKLLARGTMQPFNYVTLQCL [FEM1A]	2.56 ± 0.41	2.44 ± 0.57		
EELKAELVQLEDEITTLRQVLSAK [TPD52L1]	4.34 ± 0.32	4.22 ± 0.28		
TTTRRIVDGKVVSETNDTKVLRH [KRT18]			5.19 ± 0.24	5.28 ± 0.3
AFRWGAHLVQHQRIHSGEKPYECN [ZNF232]	2.79 ± 0.25	2.87 ± 0.19		
SFLQNAVLAYVQASPVRTLSPPK [LRRC45]			2.3 ± 0.32	2.1 ± 0.18
CRLGYGCGYEGCRYGCGHRGCGDG [KRTAP19-2]	3.01 ± 0.46	3.11 ± 0.41		
ETRRLSIGLDNGTISEFILSEDYN [WDFY2]	3.84 ± 0.34	4.03 ± 0.3		
TNGHGGEAAEGKSLGSALKPGEGR [TRIM29]	5.08 ± 0.24	5.27 ± 0.33		
IMIIICCVILGIVIASTVGGIFA [STX1A]			3.62 ± 0.33	3.79 ± 0.14
TKITSKHVKMMLSGVCLFAVFIAL [PTGFR]	3.2 ± 0.24	2.78 ± 0.1		
KYSLPWTTLDEFPLTRLGQLKACT [KCNG1]	2.42 ± 0.25	2.61 ± 0.34		
QNLSRSWHDVQVSSAYVKTSEKLG [TPD52L2]	3.98 ± 0.11	3.82 ± 0.21		
SVNFDGETIEGAPPLWAASAAGHL [FEM1C]	3.52 ± 0.23	3.6 ± 0.23		

Sequence	protein stability index [1]	protein stability index [2]	protein stability index [3]	protein stability index [4]
GGLQKMVALLNKTNVKFLAITTDC [CTNNB1]	2.73 ± 0.61	2.45 ± 0.46		
EDQEGSPPETSLPYKWVVEAANLL [MYBL2]	3.96 ± 0.18	3.915 ± 0.031		
IFLGFSSLARLQQLLFVIFLLLYL [OR10K2]	2.65 ± 0.58	2.31 ± 0.52		
GAAEPITVKFANNPSQKTGQALLT [ELAVL3]	4.1 ± 0.3	4.39 ± 0.055		
AGTPGYLSPEVLRKEAYGKPVDIW [CAMK2B]	3.29 ± 0.15	3.31 ± 0.14		
VVFGLLLSYVMSGYRCFVCPVEYN [CDS2]	3.55 ± 0.062	3.41 ± 0.31		
KAPVVECSITGDSSRVIAASYDKT [WDR88]	4.56 ± 0.2	4.78 ± 0.12		
PSIMPQKHWVYVKRGGNCPAPAPL [ZBTB22]	2.85 ± 0.19	2.81 ± 0.32		
CYDPKGDQWNILQTPILEGRSGPG [KLHL14]	2.53 ± 0.31	2.77 ± 0.43		
KFCMNGAALCALGKDCFLELAPDF [ETS1]	2.18 ± 0.33	2.01 ± 0.16		
SEFQAALSRKVAKLVHFLLLKYRA [MAGEA6]	2.45 ± 0.56	2.13 ± 0.29		
KQFHNEVLKAHNEYRQKHGVPPLK [GLIPR2]	3.79 ± 0.19	3.72 ± 0.17		
FYTLSPNSHFSLNVKTLKDGKPFP [PCDHGC5]	2.6 ± 0.21	2.62 ± 0.24		
LNIKVKLEAEIATYRRLLEDGEDF [KRT18]	2.66 ± 0.2	2.5 ± 0.34		
ANSLLASPTGLSPYLRFGCLSCRL [CRY1]	2.15 ± 0.27	2.37 ± 0.32		
SKIGSTDNIKYQPKGGQVQIVTKK [MAP2]	4.37 ± 0.17	4.63 ± 0.18		
PAVPFAPHFLQGGPFPLPYTAPGG [TBX6]	2.95 ± 0.097	3.03 ± 0.14		
CSELNKLCQHFEAVHSGTPVTNNL [SPACA9]	2.95 ± 0.47	2.97 ± 0.24		
HEEFFPAFQAFTNDLLEILEIDDL [CEP70]	3.48 ± 0.21	3.43 ± 0.37		
QGLAEKSPLQTIGEEQTQNPYTEL [WDR41]	5.3 ± 0.14	5.29 ± 0.13		
FYLPREELWIYNMETGRWKKINTE [KLHDC2]	2.63 ± 0.22	2.32 ± 0.49		
KLLLFLSTELQASQILQNKKHKNS [FAM98B]	2.98 ± 0.75	2.5 ± 1.1		
FTSSPSPFSSSSPENVEDSGLDSP [FCHO1]	2.86 ± 0.94	3.81 ± 0.87		

Sequence	protein stability index [1]	protein stability index [2]	protein stability index [3]	protein stability index [4]
SSSSFDPSVFDGLGDLLMPTMAPA [SNAP91]	3.55 ± 0.25	3.72 ± 0.33		
MTTCSRQFTSSSSMKGSCGIGGGI [KRT16]	2.41 ± 0.5	2.33 ± 0.16		
FGVAGRSCQEVLRKGCLRFQLPER [DFFB]	2.33 ± 0.24	2.25 ± 0.12		
HPFFFALGKILSVELGKQKKKYMP [FADS1]		1.89 ± 0.5		
RYRGRGSEEYRAPRPQSEESWDEE [CHGB]	5.28 ± 0.51	5.34 ± 0.33		
LNRDEEIIKQLQKGVQQKRPSEAQ [DENND6A]	4.94 ± 0.097	4.83 ± 0.31		
DQEEIKTLERYMCSRFFIDFPDIL [TENT5C]	2.45 ± 0.16	2.56 ± 0.33		
VTADDFVQTSVIGSNGYILNKPAL [EHMT1]	3.11 ± 0.26	3.13 ± 0.25		
EKPPRPEAKSAQPADGWKGERPRS [GCH1]	5.2 ± 0.2	5.21 ± 0.11		
YNPSFEDHQTLLSAAHEVELQRQK [NOP53]	4.19 ± 0.56	4.35 ± 0.44		
ADPVLDLPLPPPPPEPLSQVSMWD [APBB1IP]	3.46 ± 0.68	3.94 ± 0.62		
HGPFSGFPGPQEHTQVLPDVRLLP [DYRK1B]	3.57 ± 0.099	3.63 ± 0.21		
LGSSRTPETVRMVLSNMEKLFCIP [IMPA1]	2.08 ± 0.39	2.2 ± 0.26		
LSGVQRVESVFFGGGTPSLASPHT [RSAD1]	2.98 ± 0.27	3.07 ± 0.25		
DRLRRNWPPSFLSEFRALQFSLML [SPNS1]	2.65 ± 0.6	2.31 ± 0.51		
AAIFSLFFVPLSYLLMVTVILLPY [TMEM175]	2.91 ± 0.11	3.01 ± 0.53		
TWSNQTQNIQSWSNHSWNTQTWCT [NANOGP8]	2.27 ± 0.15	2.27 ± 0.26		
KCQHYKKKRTEQEETIASLQMEVC [CEP70]	4.008 ± 0.008	4.02 ± 0.56		
YHPRDQNKVLVCPMKSAPVMLTLS [RBBP5]	2.33 ± 0.66	2.34 ± 0.3		
TIEDEDTKVRKQEIIKVTEQLIEA [CAMK2A]	5.27 ± 0.28	5.02 ± 0.25		
RRPEVDPLPFPGPFPAGPLAVAGG [ESRRA]	3.56 ± 0.21	3.71 ± 0.24		
GSLDIMKMLLMYCAKMEKDGYGMT [FEM1C]	3.22 ± 0.46	2.58 ± 0.7		
QLVLRTKEAFDTIQEQKVVLEENG [SASS6]	4.45 ± 0.23	4.64 ± 0.46		

Sequence	protein stability index [1]	protein stability index [2]	protein stability index [3]	protein stability index [4]
NGERESGLRSLRLFQKLEENGDLY [WDR41]	3.29 ± 0.12	3.52 ± 0.23		
CMFQEHKNHSTVTVEEAKAEKETE [TRIM29]	5.52 ± 0.22	5.36 ± 0.24		
TTLKGHEGSVACLWWDPIQRLLFS [WDFY1]	2.08 ± 0.27	2.35 ± 0.39		
AALEAAGEGLNVIQQTTRYFSTPQ [NANOGP8]	3.3 ± 0.16	3.31 ± 0.25		
QWQDLMSIMEMQAMEVNTSASEIL [NFE2L1]	2.88 ± 0.45	2.86 ± 0.4		
VKYVGNMHGNEALGRELMLQLSEF [CPN1]	2.24 ± 0.2	2.25 ± 0.39		
GGYFKAHIKFPIDYPYSPPTFRFL [UBE2R2]	2.61 ± 0.96	2.71 ± 0.52		
SLTDISQPTIVEALLGYEMVQVAC [NEK8]	2.73 ± 0.64	2.4 ± 0.5		
IDTVYSTAFAPKMIVDLLSEKKTI [OR4A15]	2.37 ± 0.19	2.52 ± 0.26		
RPRGKERHKSGVHQPPQAGAGDVV [LYSMD4]	5.07 ± 0.27	5.07 ± 0.057		
NGSLYGQASSERLGLDNRLFGHPG [ADAMTSL2]	3.17 ± 0.53	3.46 ± 0.25		
GCYAYRQNPEAIAAAAMYTFLPDN [MYORG]	2.61 ± 0.34	2.46 ± 0.29		
QRHRDILQVIYWARDVFIITGVWV [GOSR1]	2.72 ± 0.72	2.25 ± 0.73		
NKPMLADVVFEIQGTTVPAHRAIL [RHOBTB3]	2.3 ± 0.27	2.29 ± 0.2		
KGGQDVKKKVHLSEKIHPFIRKSI [PRIM1]	3.85 ± 0.53	3.59 ± 0.48		
MKIKQDRASRTYELQNQLAACTRA [FSD1]	3.52 ± 0.12	3.62 ± 0.38		
LREAVPGILRARRGEGIQAPSFSS [SOAT2]	3.4 ± 0.29	3.44 ± 0.35		
QLQVTEREEVRGRELTGLKALYET [LMNB1]	3.68 ± 0.18	3.98 ± 0.38		
TRVSQLGLQVEGLRRRLEELQQEL [LRRC45]	4.36 ± 0.24	4.55 ± 0.46		
MDNNRNLDLDSIIDEVRTQYEEIA [KRT71]	4.14 ± 0.26	4.13 ± 0.17		
